Our source for the Ka and binding signal values is article PMC1184061.

Series [1] deals with T1, zif268 DBD wild type (RE) (UniProt P08046 331-420). In words: EMSA (Scatchard); 30 mM Tris-HCl pH 8.0, 50 mM NaCl, 0.1 mg/ml BSA, 3 mM DTT, 20 uM ZnSO4, 5 ug/ml poly(dI-dC), 1 h on ice; 10% polyacrylamide gel.
Series [2] addresses T2, zif268 DBD E21N (RN) (UniProt P08046 331-420, E352N). The series is described as above.
Series [3] deals with T3, zif268 DBD R18Q (QE) (UniProt P08046 331-420, R349Q). Described as above.
For series [4], the target named is T4, zif268 DBD R18D (DE) (UniProt P08046 331-420, R349D). The description is as above.
The target in series [5] is T5, zif268 DBD R18Q/E21N (QN) (UniProt P08046 331-420, R349Q;E352N). Description: EMSA (Scatchard x QuMFRA); derived; 30 mM Tris-HCl pH 8.0, 50 mM NaCl, 0.1 mg/ml BSA, 3 mM DTT, 20 uM ZnSO4, 5 ug/ml poly(dI-dC), 1 h on ice; 10% polyacrylamide gel.
The target in series [6] is T6, zif268 DBD R18D/E21N (DN) (UniProt P08046 331-420, R349D;E352N). The description is as above.
Series [7] deals with T5, zif268 DBD R18Q/E21N (QN). Description: competition EMSA (QuMFRA); 30 mM Tris-HCl pH 8.0, 50 mM NaCl, 0.1 mg/ml BSA, 3 mM DTT, 20 uM ZnSO4, 5 ug/ml poly(dI-dC), 1 h on ice; 10% polyacrylamide gel.
Series [8] concerns the target T1, zif268 DBD wild type (RE). The description is as above.
The target of series [9] is T2, zif268 DBD E21N (RN). Described as above.
The target in series [10] is T6, zif268 DBD R18D/E21N (DN). The description is as above.
The target of series [11] is T3, zif268 DBD R18Q (QE). Described as above.
Series [12] deals with T4, zif268 DBD R18D (DE). The description is as above.
Series [13] concerns the target T1, zif268 DBD wild type (RE). In words: EMSA (Scatchard x QuMFRA); derived; 30 mM Tris-HCl pH 8.0, 50 mM NaCl, 0.1 mg/ml BSA, 3 mM DTT, 20 uM ZnSO4, 5 ug/ml poly(dI-dC), 1 h on ice; 10% polyacrylamide gel.
The target of series [14] is T2, zif268 DBD E21N (RN). The series is described as above.
For series [15], the target named is T3, zif268 DBD R18Q (QE). Described as above.
Series [16] deals with T4, zif268 DBD R18D (DE). Described as above.
The target in series [17] is T5, zif268 DBD R18Q/E21N (QN). In words: EMSA (Scatchard); 30 mM Tris-HCl pH 8.0, 50 mM NaCl, 0.1 mg/ml BSA, 3 mM DTT, 20 uM ZnSO4, 5 ug/ml poly(dI-dC), 1 h on ice; 10% polyacrylamide gel.
Series [18] has as its target T6, zif268 DBD R18D/E21N (DN). The series is described as above.

Changes are numbered by the printed parent chain.

B1: Zif_3 (CC) (dsDNA)
DNA 1: TCGAGGTCGACGGTATCGCGTGGGCCCTCCACTAGTTCTAGAGCGGCCGCCAC
DNA 2: GTGGCGGCCGCTCTAGAACTAGTGGAGGGCCCACGCGATACCGTCGACCTCGA
For the molecule B1, the Ka in series [1] is 33 10^6 M-1; with zif268 DBD E21N (RN) [2] it was 33 10^6 M-1; with zif268 DBD R18Q (QE) [3], 6.4 10^6 M-1; in the series with zif268 DBD R18D (DE) [4], 4.7 10^6 M-1; in series [5], 3.9 10^6 M-1; in series [6], 3.1 10^6 M-1. In addition, the binding signal was 0.53 Ka relative to CG in series [7]; 0.082 Ka relative to CG in series [8]; 0.41 Ka relative to CG in the series with zif268 DBD E21N (RN) [9]; 2.61 Ka relative to CG in series [10]; 2.17 Ka relative to CG in the series with zif268 DBD R18Q (QE) [11]; 1.91 Ka relative to CG with zif268 DBD R18D (DE) [12].

B2: Zif_2 (CA) (dsDNA)
DNA 1: B1 DNA 1 with C26A
DNA 2: B1 DNA 2 with G28T
For the molecule B2, the Ka is 3.5 10^6 M-1 in [5]; 109 10^6 M-1 in [13]; 30 10^6 M-1 with zif268 DBD E21N (RN) [14]; 1.4 10^6 M-1 in [6]; 4.5 10^6 M-1 with zif268 DBD R18Q (QE) [15]; 2.8 10^6 M-1 with zif268 DBD R18D (DE) [16]. In addition, the binding signal was 0.49 Ka relative to CG in series [7]; 0.27 Ka relative to CG in [8]; 0.36 Ka relative to CG with zif268 DBD E21N (RN) [9]; 1.21 Ka relative to CG in [10]; 1.5 Ka relative to CG in the series with zif268 DBD R18Q (QE) [11]; 1.16 Ka relative to CG in the series with zif268 DBD R18D (DE) [12].

B3: Zif_6 (AC) (dsDNA)
DNA 1: B1 DNA 1 with C25A
DNA 2: B1 DNA 2 with G29T
Take B3: the Ka in [5] was 21 10^6 M-1; in series [13] it was 16 10^6 M-1; in the series with zif268 DBD E21N (RN) [14], 77 10^6 M-1; in [6], 14 10^6 M-1; with zif268 DBD R18Q (QE) [15] it was 5.7 10^6 M-1; with zif268 DBD R18D (DE) [16], 5.5 10^6 M-1. Further, the binding signal in [7] is 2.78 Ka relative to CG; in [8], 0.041 Ka relative to CG; with zif268 DBD E21N (RN) [9] it was 0.94 Ka relative to CG; in series [10], 11.8 Ka relative to CG; in the series with zif268 DBD R18Q (QE) [11], 1.93 Ka relative to CG; in the series with zif268 DBD R18D (DE) [12], 3.08 Ka relative to CG.

B4: Zif_1 (CG) (dsDNA)
DNA 1: B1 DNA 1 with C26G
DNA 2: B1 DNA 2 with G28C
As to B4, the Ka is 7.4 10^6 M-1 in series [5]; 406 10^6 M-1 in series [13]; 81 10^6 M-1 with zif268 DBD E21N (RN) [14]; 1.2 10^6 M-1 in series [6]; 3 10^6 M-1 with zif268 DBD R18Q (QE) [15]; 2.5 10^6 M-1 with zif268 DBD R18D (DE) [16].

B5: Zif_5 (AA) (dsDNA)
DNA 1: B1 DNA 1 with C25A, C26A
DNA 2: B1 DNA 2 with G28T, G29T
For B5, the Ka in series [5] is 18 10^6 M-1; in series [13], 26 10^6 M-1; with zif268 DBD E21N (RN) [14], 56 10^6 M-1; in series [6] it was 4.8 10^6 M-1; with zif268 DBD R18Q (QE) [15], 4 10^6 M-1; in the series with zif268 DBD R18D (DE) [16], 3.7 10^6 M-1. The binding signal is 2.47 Ka relative to CG in series [7]; 0.064 Ka relative to CG in [8]; 0.68 Ka relative to CG in the series with zif268 DBD E21N (RN) [9]; 4.02 Ka relative to CG in [10]; 1.36 Ka relative to CG in the series with zif268 DBD R18Q (QE) [11]; 2.25 Ka relative to CG with zif268 DBD R18D (DE) [12].

B6: Zif_4 (AG) (dsDNA)
DNA 1: B1 DNA 1 with C25A, C26G
DNA 2: B1 DNA 2 with G28C, G29T
As for B6, the Ka in series [17] was 33 10^6 M-1; in series [18], 17 10^6 M-1; in [13], 63 10^6 M-1; with zif268 DBD E21N (RN) [14], 105 10^6 M-1; with zif268 DBD R18Q (QE) [15] it was 3.9 10^6 M-1; with zif268 DBD R18D (DE) [16], 3.6 10^6 M-1. Moreover, the binding signal in series [7] was 4.45 Ka relative to CG; in series [8], 0.15 Ka relative to CG; with zif268 DBD E21N (RN) [9], 1.29 Ka relative to CG; in [10] it was 14.5 Ka relative to CG; in the series with zif268 DBD R18Q (QE) [11] it was 1.3 Ka relative to CG; with zif268 DBD R18D (DE) [12], 1.48 Ka relative to CG.
